The supplement of paper PMC7125110
± gives the standard error. For some assays here: Fewer inactive variants are shown than the library holds.

B1: glmS ribozyme (parent)
chain: AUAAAAGCGCCAGAACUACAGAAAUGUAGUUGACGAGGAGGAGGUUUAUCGAAUUUUCGGCGGAUGCCUCCAAA

Experiments:
Details in all cases: with glucosamine-6-phosphate
glucosamine-6-phosphate [1] = variants of: B1; experiment: kcat; higher = faster cleavage; RNA array
Procedure, shortened: (§1)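 Glucosamine-6-phosphate, from 40 μM to 10 mM in HEPES/KCl/Mg(OAc)2 buffer, was flowed over sequenced MiSeq chips carrying barcoded ribozyme variants transcribed in situ by E. coli RNA polymerase. A hybridised Cy3 probe tracked the variants at 37 °C as tiles were imaged over ~14 h. kobs, kcat and KM were obtained by fitting normalised per-tile medians to exponential decays and then applying weighted Michaelis–Menten fits across concentrations.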

glucosamine-6-phosphate [2] = variants of: B1; experiment: KM; higher = weaker cofactor use; RNA array
Procedure, shortened: as §1

glucosamine-6-phosphate [3] = variants of: B1; experiment: self-cleavage kobs at 160 uM GlcN6P; higher = faster cleavage; RNA array
Procedure, shortened: as §1

glucosamine-6-phosphate [4] = variants of: B1; experiment: self-cleavage kobs at 640 uM GlcN6P; higher = faster cleavage; RNA array
Procedure, shortened: as §1

glucosamine-6-phosphate [5] = variants of: B1; experiment: self-cleavage kobs at 2500 uM GlcN6P; higher = faster cleavage; RNA array
Procedure, shortened: as §1

glucosamine-6-phosphate [6] = variants of: B1; experiment: self-cleavage kobs at 10000 uM GlcN6P; higher = faster cleavage; RNA array
Procedure, shortened: as §1

glucosamine-6-phosphate [7] = variants of: B1; experiment: self-cleavage kobs at 40 uM GlcN6P; higher = faster cleavage; RNA array
Procedure, shortened: as §1

Variant	kcat (glucosamine-6-phosphate [1])	KM (glucosamine-6-phosphate [2])	self-cleavage kobs at 160 uM GlcN6P (glucosamine-6-phosphate [3])	self-cleavage kobs at 640 uM GlcN6P (glucosamine-6-phosphate [4])	self-cleavage kobs at 2500 uM GlcN6P (glucosamine-6-phosphate [5])	self-cleavage kobs at 10000 uM GlcN6P (glucosamine-6-phosphate [6])	self-cleavage kobs at 40 uM GlcN6P (glucosamine-6-phosphate [7])
A12G U54G	0.000855 ± 0.00011 s⁻¹	2260 ± 460 µM	6.55e-05 ± 1.5e-05 s⁻¹	0.000179 ± 2.1e-05 s⁻¹	0.000475 ± 5.8e-05 s⁻¹	0.00064 ± 0.00017 s⁻¹	–
G29C A52G	0.000125 ± 7.9e-06 s⁻¹	1940 ± 350 µM	–	2.88e-05 ± 7.9e-06 s⁻¹	7.18e-05 ± 1e-05 s⁻¹	0.000104 ± 1e-05 s⁻¹	–
U46A C71A	0.00108 ± 0.00054 s⁻¹	–	–	0.000259 ± 5.1e-05 s⁻¹	0.000566 ± 0.00015 s⁻¹	0.000724 ± 0.00023 s⁻¹	–
C10G A39G	< 1e-05 s⁻¹	–	< 1e-05 s⁻¹	–	–	–	–
G66C U69G	5.5e-05 ± 1.9e-05 s⁻¹	–	4.18e-05 ± 1.2e-05 s⁻¹	8.02e-05 ± 1.2e-05 s⁻¹	6.24e-05 ± 1.2e-05 s⁻¹	–	–
A15G U54C	0.0142 ± 0.0059 s⁻¹	–	0.0021 ± 0.00098 s⁻¹	–	–	0.0181 ± 0.0046 s⁻¹	0.000969 ± 0.00018 s⁻¹
A42U C67U	0.000151 ± 1.3e-05 s⁻¹	1090 ± 300 µM	–	5.2e-05 ± 6.3e-06 s⁻¹	0.000127 ± 1.2e-05 s⁻¹	0.000131 ± 8.5e-06 s⁻¹	–
G51C U69G	1.7e-05 ± 4.2e-06 s⁻¹	–	–	–	–	–	–
U46G U54G	0.0123 ± 0.0017 s⁻¹	3110 ± 510 µM	0.000596 ± 0.00017 s⁻¹	0.00224 ± 0.0004 s⁻¹	0.00479 ± 0.0013 s⁻¹	0.0102 ± 0.003 s⁻¹	0.000155 ± 2.6e-05 s⁻¹
C11U G40C C71U	0.000141 ± 1.8e-06 s⁻¹	1450 ± 65 µM	–	4.4e-05 ± 1.6e-05 s⁻¹	8.73e-05 ± 2.5e-05 s⁻¹	0.000124 ± 1.7e-05 s⁻¹	–
A48C U54C	0.00042 ± 0.00013 s⁻¹	–	–	9.71e-05 ± 2.4e-05 s⁻¹	0.000224 ± 6e-05 s⁻¹	0.000316 ± 9.5e-05 s⁻¹	–
C16U G59U	4.21e-05 ± 7.7e-06 s⁻¹	–	–	–	4.99e-05 ± 1.2e-05 s⁻¹	3.73e-05 ± 7.2e-06 s⁻¹	–
A39U A53U	0.0113 ± 0.0033 s⁻¹	1260 ± 530 µM	0.000985 ± 0.00016 s⁻¹	0.00368 ± 0.00054 s⁻¹	0.00619 ± 0.001 s⁻¹	0.0126 ± 0.0017 s⁻¹	0.000461 ± 5e-05 s⁻¹
C11G A14U C70A	3.61e-05 ± 1.3e-05 s⁻¹	–	–	–	–	–	–
A15G U55C	0.0256 ± 0.0046 s⁻¹	1870 ± 410 µM	0.00212 ± 0.00033 s⁻¹	0.0055 ± 0.0011 s⁻¹	0.0125 ± 0.005 s⁻¹	0.0242 ± 0.0051 s⁻¹	0.000564 ± 7.9e-05 s⁻¹
C11A G13A	< 1e-05 s⁻¹	–	–	–	–	–	< 1e-05 s⁻¹
A6G U46G C68U	3.96e-05 ± 1.9e-05 s⁻¹	–	–	–	4.82e-05 ± 2.3e-05 s⁻¹	–	–

Variant	kcat (glucosamine-6-phosphate [1])	KM (glucosamine-6-phosphate [2])	self-cleavage kobs at 160 uM GlcN6P (glucosamine-6-phosphate [3])	self-cleavage kobs at 640 uM GlcN6P (glucosamine-6-phosphate [4])	self-cleavage kobs at 2500 uM GlcN6P (glucosamine-6-phosphate [5])	self-cleavage kobs at 10000 uM GlcN6P (glucosamine-6-phosphate [6])	self-cleavage kobs at 40 uM GlcN6P (glucosamine-6-phosphate [7])
G13U U45A	0.00214 ± 0.00039 s⁻¹	2010 ± 490 µM	0.000142 ± 5.1e-05 s⁻¹	0.000543 ± 0.00015 s⁻¹	0.00117 ± 0.00036 s⁻¹	–	4.66e-05 ± 2.1e-05 s⁻¹
G37A A64G	0.00317 ± 0.0014 s⁻¹	–	5.16e-05 ± 2.1e-05 s⁻¹	0.000337 ± 6.8e-05 s⁻¹	0.000977 ± 0.00019 s⁻¹	0.002 ± 0.00025 s⁻¹	6.01e-05 ± 1.3e-05 s⁻¹
A14U U54G	0.00917 ± 0.0032 s⁻¹	–	0.000382 ± 6.2e-05 s⁻¹	0.00128 ± 0.00026 s⁻¹	0.00387 ± 0.00047 s⁻¹	0.00759 ± 0.00076 s⁻¹	0.000217 ± 2.4e-05 s⁻¹
A48U A53G	0.000396 ± 3.6e-05 s⁻¹	1560 ± 290 µM	2.96e-05 ± 1.2e-05 s⁻¹	0.000127 ± 1.9e-05 s⁻¹	0.000229 ± 3.5e-05 s⁻¹	0.000349 ± 4.7e-05 s⁻¹	–
G38U C50G	4.08e-05 ± 1.4e-05 s⁻¹	–	–	–	6.94e-05 ± 1.4e-05 s⁻¹	–	–
G59U C67G	1.65e-05 ± 6.4e-06 s⁻¹	–	–	–	–	–	–
U54C G66A	0.011 ± 0.0023 s⁻¹	1100 ± 320 µM	0.00112 ± 0.0004 s⁻¹	0.00522 ± 0.0011 s⁻¹	0.00593 ± 0.0014 s⁻¹	0.0118 ± 0.0022 s⁻¹	0.000397 ± 5.3e-05 s⁻¹
A6U C70U	0.000253 ± 4.2e-05 s⁻¹	1200 ± 440 µM	–	8.14e-05 ± 9.8e-06 s⁻¹	0.00021 ± 2.2e-05 s⁻¹	0.000197 ± 2.7e-05 s⁻¹	–
C10A G38A	< 1e-05 s⁻¹	–	–	–	–	–	< 1e-05 s⁻¹
A12U G37A	0.0147 ± 0.0035 s⁻¹	4700 ± 1500 µM	0.000398 ± 7.4e-05 s⁻¹	0.00168 ± 0.00025 s⁻¹	0.00456 ± 0.001 s⁻¹	0.0103 ± 0.0011 s⁻¹	0.000169 ± 2.3e-05 s⁻¹
G32C C50G	5.17e-05 ± 1.5e-05 s⁻¹	–	–	6.25e-05 ± 2e-05 s⁻¹	–	–	4.21e-05 ± 1.5e-05 s⁻¹
A14G G29U	0.00845 ± 0.0039 s⁻¹	–	0.00105 ± 0.00022 s⁻¹	0.00497 ± 0.00096 s⁻¹	0.00501 ± 0.0013 s⁻¹	0.0131 ± 0.0033 s⁻¹	0.000647 ± 0.00012 s⁻¹
C10U U47C U56G C68U U69A	< 1e-05 s⁻¹	429 ± 190 µM	–	< 1e-05 s⁻¹	–	< 1e-05 s⁻¹	–
G62C U69C	< 1e-05 s⁻¹	–	–	< 1e-05 s⁻¹	–	–	< 1e-05 s⁻¹
G40A G59U	1.46e-05 ± 2.7e-06 s⁻¹	–	< 1e-05 s⁻¹	–	–	–	< 1e-05 s⁻¹
A53U U57G	0.000158 ± 2.7e-05 s⁻¹	4010 ± 1600 µM	–	3.61e-05 ± 1.4e-05 s⁻¹	5.56e-05 ± 1e-05 s⁻¹	0.000115 ± 1.4e-05 s⁻¹	–
G44U U55A	0.000317 ± 4.2e-05 s⁻¹	891 ± 390 µM	–	0.000157 ± 4e-05 s⁻¹	0.000288 ± 4.6e-05 s⁻¹	0.000273 ± 3.2e-05 s⁻¹	–
